Source: paper PMC11452662, “Biofunctionalized dissolvable hydrogel microbeads enable efficient characterization of native protein complexes” (Nature Communications, 2024)
Several values for one entry are separate records, joined by “and”; a condition that tells them apart may be missing. Equal values may be shown once.

T1: Thermoplasma acidophilum 20S proteasome β subunit with Twin-Strep-tag (Thermoplasma acidophilum, UniProt P28061 9-211)
T1 construct: 20S proteasome β subunit of Thermoplasma acidophilum; not shown: Twin-Strep-tag, C-terminal, kept
T1 sequence (looked up): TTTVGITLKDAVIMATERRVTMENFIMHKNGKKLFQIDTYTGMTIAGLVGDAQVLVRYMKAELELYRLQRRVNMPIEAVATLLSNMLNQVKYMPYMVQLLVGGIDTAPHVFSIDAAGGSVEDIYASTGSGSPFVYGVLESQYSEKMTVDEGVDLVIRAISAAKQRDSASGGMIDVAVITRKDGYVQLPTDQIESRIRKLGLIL


Columns and labels:
[1] = target: Hp of the Hp(2)Ab(1) complex; test: native MS; tandem MS with increasing collisional energy of the bait-target complex Hp(2)Hb(4)Ab(1), Hb as bait
[2] = target: T1, Thermoplasma acidophilum 20S proteasome …; test: native MS; 20S purified with Strep-Tactin SNAP beads, α and β coded in the same plasmid; 150 mM ammonium acetate; conditions: partners not purified
[3] = target: the molecule itself; test: native MS; 20S purified with Strep-Tactin SNAP beads, α and β expressed from two separate plasmids; 150 mM ammonium acetate

Molecule	stoichiometry N [1]	stoichiometry N [2]	stoichiometry N [3]
Hp of the Hp(2)Ab(1) complex	2	–	–
Thermoplasma acidophilum 20S proteasome α subunit, unmodified (natural protein, UniProt P25156 1-233, looked up, 20S proteasome α subunit of Thermoplasma acidophilum; The results call this α subunit unmodified; the methods say that the constructs were tagged at the C-termini with either a Twin-Strep-tag or a His tag) MQQGQMAYDRAITVFSPDGRLFQVEYAREAVKKGSTALGMKFANGVLLISDKKVRSRLIEQNSIEKIQLIDDYVAAVTSGLVADARVLVDFARISAQQEKVTYGSLVNIENLVKRVADQMQQYTQYGGVRPYGVSLIFAGIDQIGPRLFDCDPAGTINEYKATAIGSGKDAVVSFLEREYKENLPEKEAVTLGIKALKSSLEEGEELKAPEIASITVGNKYRIYDQEEVKKFL	–	28 subunits in the complex of α and β	7 and 14
